Consider seven molecules from US20030032157A1, “Polypeptides interactive with Bcl-XL” (priority 2001, published 2003).

The target in experiment [1] is T1, Bcl-XL-GST fusion protein (Homo sapiens, UniProt Q07817).
T1 construct: made in house; host or cells: E. coli BL21 (DE3) pLysS
In words: Free purified polypeptide binding to Bcl-XL-GST fusion protein (additional selection, FIG. 9). To be noted: purified free polypeptides. As for the experimental part: (§1) Detection of a polypeptide binding to a Bcl-XL-glutathione S-transferase (GST) fusion protein was carried out as follows. Twenty microliters of glutathione Sepharose 4B slurry (AP Biotech) was aliquoted to a microcentrifuge tube and washed with PBS. The Bcl-XL-GST fusion protein (60 μg), prepared as describe above, was added and allowed to bind to the Sepharose beads for 1 hr at 4° C. The beads were then re-washed in selection buffer (50 mM Tris-HCL pH 7.5, 150 mM KCl, 0.05% Triton X-100, 0.5 mg/ml BSA, and 0.1 mg/ml salmon sperm DNA). The Bcl-XL-GST beads were resuspended in 100 μl of selection buffer (approximately 11.5 μM Bcl-XL) and ^35S-labeled mRNA display construct or free peptide was added (approximately 10-60 nM) and incubated on a rotator for 1 hr at 4° C. The reaction was then transferred to a microcentrifuge column (BioRad) and unbound mRNA display constructs or free peptides were removed by a 10 sec spin at 1,000 rpm. The Sepharose beads were then washed three times with 500 μl of selection buffer. The extent of binding between the Bcl-XL-GST fusion protein and the mRNA display constructs or free peptides was determined by scintillation counting each fraction, including the recovered beads. […]

Experiment [2] concerns the target T2, human Bcl-XL protein produced as a GST fusion (Homo sapiens, UniProt Q07817).
T2 construct: made in house; host or cells: E. coli BL21 (DE3) pLysS
In words: Binding of mRNA display constructs to Bcl-XL-GST fusion protein immobilized on glutathione Sepharose beads (scintillation counting). To be noted: BH3 domain or control peptides as individual mRNA display constructs, 1 hr 4° C. As for the experimental part: Detection of a polypeptide binding to a Bcl-XL-glutathione S-transferase (GST) fusion protein was carried out as follows. Twenty microliters of glutathione Sepharose 4B slurry (AP Biotech) was aliquoted to a microcentrifuge tube and washed with PBS. The Bcl-XL-GST fusion protein (60 μg), prepared as describe above, was added and allowed to bind to the Sepharose beads for 1 hr at 4° C. The beads were then re-washed in selection buffer (50 mM Tris-HCL pH 7.5, 150 mM KCl, 0.05% Triton X-100, 0.5 mg/ml BSA, and 0.1 mg/ml salmon sperm DNA). […] The extent of binding between the Bcl-XL-GST fusion protein and the mRNA display constructs or free peptides was determined by scintillation counting each fraction, including the recovered beads.
Members of the Bcl-2 family of apoptotic proteins function via homo- and heterodimerization, occurring primarily through the binding of a single α-helix designated the BH3 domain (Bcl-2 Homology domain 3) in a corresponding pocket produced by three α-helices in the interacting partner (Diaz et al., J. Biol. Chem. 272:11350-11355, 1997; and Sattler et al., Science 275:983-986, 1997). […] The amount of peptide bound to the beads was determined by scintillation counting and graphed as the percent of input counts bound (FIG. 2B).

Experiment [3] deals with human Bcl-XL-GST fusion protein (human) [GST: P08515]. In words: purified labeled free peptide on immobilized Bcl-XL-GST.
In experiment [4] the target is T3, human Bcl-XL-GST fusion protein (human, UniProt P08515 1-218 = GST; Q07817 1-211).
T3 construct: Made in E. coli, immobilized on glutathione Sepharose beads; whole entry named; also called Bcl-XL-glutathione S-transferase (GST) fusion protein; GST-BCL-XL
In words: 35S-labeled mRNA display construct on Bcl-XL-GST glutathione Sepharose beads, scintillation counting. As for the experimental part:
as §1, with “³⁵S-labeled” for “^35S-labeled”

The target of experiment [5] is T3, human Bcl-XL-GST fusion protein. In words: labeled free peptide on Bcl-XL-GST beads, immobilized target varied from 11 nM to 28 µM. How it is done:
Detection of a polypeptide binding to a Bcl-XL-glutathione S-transferase (GST) fusion protein was carried out as follows. Twenty microliters of glutathione Sepharose 4B slurry (AP Biotech) was aliquoted to a microcentrifuge tube and washed with PBS. The Bcl-XL-GST fusion protein (60 μg), prepared as describe above, was added and allowed to bind to the Sepharose beads for 1 hr at 4° C. The beads were then re-washed in selection buffer (50 mM Tris-HCL pH 7.5, 150 mM KCl, 0.05% Triton X-100, 0.5 mg/ml BSA, and 0.1 mg/ml salmon sperm DNA). The Bcl-XL-GST beads were resuspended in 100 μl of selection buffer (approximately 11.5 μM Bcl-XL) and ³⁵S-labeled mRNA display construct or free peptide was added (approximately 10-60 nM) and incubated on a rotator for 1 hr at 4° C. […] The extent of binding between the Bcl-XL-GST fusion protein and the mRNA display constructs or free peptides was determined by scintillation counting each fraction, including the recovered beads.
Purified radioactively labeled protein from the individual clones was incubated with immobilized Bcl-XL-GST for one hour and, after washing, the amount bound was determined by scintillation counting. […] The amount of peptide bound to Bcl-XL was determined by scintillation counting and normalized to that bound at the highest concentration. […]

Experiment [6] has the same target. In words: labeled free peptide on immobilized Bcl-XL-GST with Bak BH3 competitor. As for the experimental part:
Only three of the selected proteins (Bim, Bak, and Bax) were previously known to contain a BH3 domain. In order to determine if the other proteins bound to the BH3 domain binding site on Bcl-XL, a competition assay was performed. The Bak BH3 domain peptide used as a positive control was prepared by chemical synthesis and used to compete with individual Bcl-XL-binding polypeptides in a Bcl-XL binding assay. […] At a fixed concentration of immobilized Bcl-XL, the Bak BH3 domain-containing peptide […] (SEQ ID NO: 152), also containing a FLAG-M2 epitope, was added at the indicated concentration along with a trace amount of a selected Talin fragment. After binding for 1 hour, the unbound material was removed and the bound protein was quantitated. The bound protein was assayed by scintillation counting, normalized to that bound in the absence of competitor, and plotted versus competitor concentration.
A competition assay was performed for each of the selected Bcl-XL-binding polypeptides using 20 μM Bak BH3 competitor based on the titration shown in FIG. 6.

T3 sequence (P08515 1-218, tags or fused parts left off): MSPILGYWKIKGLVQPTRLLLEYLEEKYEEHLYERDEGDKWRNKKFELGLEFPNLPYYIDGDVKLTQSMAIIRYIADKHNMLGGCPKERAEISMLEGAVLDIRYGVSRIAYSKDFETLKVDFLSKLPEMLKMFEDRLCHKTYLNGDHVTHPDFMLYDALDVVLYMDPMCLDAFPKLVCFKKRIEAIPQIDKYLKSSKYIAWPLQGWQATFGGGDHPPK
T1 sequence (Q07817 1-211): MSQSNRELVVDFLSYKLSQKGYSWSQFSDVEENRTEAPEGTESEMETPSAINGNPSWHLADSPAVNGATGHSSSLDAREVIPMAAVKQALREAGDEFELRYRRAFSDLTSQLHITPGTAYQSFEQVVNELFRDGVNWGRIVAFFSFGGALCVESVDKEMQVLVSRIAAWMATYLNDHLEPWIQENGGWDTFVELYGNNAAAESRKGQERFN
Chain of human Bcl-XL-GST fusion protein (human) [GST: P08515] (P08515 1-218, tags or fused parts left off): as the sequence (P08515 1-218, tags or fused parts left off) above
T2 sequence (Q07817 1-211): as the sequence (Q07817 1-211) above

Regarding “Bmf: selected Bmf polypeptide of the additional selection, purified free polypeptide (KAEVQIARKLQCIADQFHRLHVL)”, in experiment [1], the “Binding to the Bcl-XL-GST fusion protein” value amounted to 6%.
As for “Bcl-2: BH3 domain of Bcl-2 prepared as mRNA display construct (FIG. 2A) (PVVHLTLRQAGDDFSR)”, the “percent of input counts bound to Bcl-XL-GST” value in experiment [2] is on record as “no binding was observed”.
In experiment [3], “Bax (clone AttB-Hc-7) (from UniProt Q07812 40-95) (peptide)” returned a percent bound of 32%.
As to “SRP9: selected SRP9 polypeptide of the additional selection, purified free polypeptide (IGEEFSRAAEKLYLAV)”, the “Binding to the Bcl-XL-GST fusion protein” value in experiment [1] was found to be 0.65%.

B1: BH3 domain of Bcl-2, mRNA display construct (peptide, UniProt P10415 91-106, looked up)
peptide: PVVHLTLRQAGDDFSR
notes: domain: BH3 domain; Peptide fused to its mRNA through puromycin; also called BH3 helix from Bcl-2
In the case of B1, the binding result in experiment [4] is reported as “no binding”.

B2: Bak BH3 domain-containing peptide MGQVGRQLAIIGDDINRDYKDDDDKASA (peptide)
peptide: MGQVGRQLAIIGDDINRDYKDDDDKASA
notes: Chemically synthesized free peptide; also called selected Bak fragment
In the case of B2, the binding result in experiment [5] is “binds”.

B3: clone t53 (peptide)
chain: LDPVKDVLILSALRRMLWAADDFLEDLPFEQIG
notes: mRNA display clone from a known polypeptide
For the molecule B3, the binding result in experiment [6] was “binds”.
